The target in this test is T1, human IL-12Rβ2 expressed on cells (human, UniProt Q99665 24-862).
T1 sequence: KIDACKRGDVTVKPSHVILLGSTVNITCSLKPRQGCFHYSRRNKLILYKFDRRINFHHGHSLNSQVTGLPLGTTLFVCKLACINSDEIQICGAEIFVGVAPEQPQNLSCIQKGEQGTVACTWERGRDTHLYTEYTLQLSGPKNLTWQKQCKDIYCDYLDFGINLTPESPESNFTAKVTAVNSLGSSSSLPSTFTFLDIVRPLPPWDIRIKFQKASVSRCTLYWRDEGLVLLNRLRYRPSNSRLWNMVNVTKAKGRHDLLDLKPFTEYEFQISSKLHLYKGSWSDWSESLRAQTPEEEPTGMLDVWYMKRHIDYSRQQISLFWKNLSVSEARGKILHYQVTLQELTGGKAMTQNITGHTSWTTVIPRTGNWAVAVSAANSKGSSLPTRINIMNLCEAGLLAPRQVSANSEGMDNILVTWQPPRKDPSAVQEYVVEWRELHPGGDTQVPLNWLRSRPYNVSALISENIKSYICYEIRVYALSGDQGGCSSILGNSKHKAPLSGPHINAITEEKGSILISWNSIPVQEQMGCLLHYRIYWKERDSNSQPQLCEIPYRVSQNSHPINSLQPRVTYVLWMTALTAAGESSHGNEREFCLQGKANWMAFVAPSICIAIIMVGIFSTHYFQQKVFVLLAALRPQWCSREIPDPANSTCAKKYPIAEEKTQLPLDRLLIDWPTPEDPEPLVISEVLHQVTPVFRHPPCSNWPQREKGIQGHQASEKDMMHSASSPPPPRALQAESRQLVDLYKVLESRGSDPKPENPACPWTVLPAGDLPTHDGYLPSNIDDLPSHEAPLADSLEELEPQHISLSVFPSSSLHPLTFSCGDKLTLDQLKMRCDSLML
The test can be described thus: cell-based or functional assay.

Residue numbers refer to the chain shown, from its start.

B1: 20399-FcDE (Fc fusion)
VHH-Fc chain: QVQLQESGGGLVQPGGSLRLSCAASGSILRINLMGWYRQVPGKQRELVAEMSTGGSTTYVDSVEGRFTISRDNAKNTVYLQMNSLKPEDTAVYYCNAKAWQLGRLENDDWGQGTQVTVSSAPELLGGPDVFLFPPKPKDTLMISRTPEVTCVVVDVSHEDPEVKFNWYVDGVEVHNAKTKPREEQYNSTYRVVSVLTVLHQDWLNGKEYKCKVSNKALPAPEEKTISKAKGQPREPQVYTLPPSRDELTKNQVSLTCLVKGFYPSDIAVEWESNGQPENNYKTTPPVLDSDGSFFLYSKLTVDKSRWQQGNVFSCSVMHEALHNHYTQKSLSLSPGK
As for B1, the “% Specific Cell Lysis at 0.00125 ug/mL” value came to 61%, the “% Specific Cell Lysis at 0.025 ug/mL” value amounted to 63.1%, the “% Specific Cell Lysis at 0.5 ug/mL” value amounted to 67.1% and the “% Specific Cell Lysis at 10 ug/mL” value was 72.4%.

B2: 20372-FcDE (Fc fusion)
VHH-Fc chain: QVQLQESGGGLVQAGGSLRLSCAASARTESMYAMAWFRQAPGKEREIVAGIIQSGGTTYISDYMKGRFSIDRGNAENTVYLQMDSLKPEDTAVYSCAAKVSSGTPSDIQISQSRWYDHWGQGTQVTVSSAPELLGGPDVFLFPPKPKDTLMISRTPEVTCVVVDVSHEDPEVKFNWYVDGVEVHNAKTKPREEQYNSTYRVVSVLTVLHQDWLNGKEYKCKVSNKALPAPEEKTISKAKGQPREPQVYTLPPSRDELTKNQVSLTCLVKGFYPSDIAVEWESNGQPENNYKTTPPVLDSDGSFFLYSKLTVDKSRWQQGNVFSCSVMHEALHNHYTQKSLSLSPGK
Regarding B2, the “% Specific Cell Lysis at 0.00125 ug/mL” value worked out at 51.1%, the “% Specific Cell Lysis at 0.5 ug/mL” value was 66.9% and the “% Specific Cell Lysis at 10 ug/mL” value came to 69.9%.

B3: 20373-FcDE (Fc fusion)
VHH-Fc chain: QVQLQESGGGLVQAGGSLVLSCAASGSAALIFLMSWYRQAPGKQRELVAEVSRGGSTTYADSVEGRFTISRDNAKNIVDLQMNSLKPEDTAVYYCKADQNYGDSLRSSWGQGTQVTVSSAPELLGGPDVFLFPPKPKDTLMISRTPEVTCVVVDVSHEDPEVKFNWYVDGVEVHNAKTKPREEQYNSTYRVVSVLTVLHQDWLNGKEYKCKVSNKALPAPEEKTISKAKGQPREPQVYTLPPSRDELTKNQVSLTCLVKGFYPSDIAVEWESNGQPENNYKTTPPVLDSDGSFFLYSKLTVDKSRWQQGNVFSCSVMHEALHNHYTQKSLSLSPGK
Turning to B3, the “% Specific Cell Lysis at 0.00125 ug/mL” value turned out to be 48.9%, the “% Specific Cell Lysis at 0.025 ug/mL” value is 61.1%, the “% Specific Cell Lysis at 0.5 ug/mL” value amounted to 67.4% and the “% Specific Cell Lysis at 10 ug/mL” value is 70.7%.

B4: 20394-FcDE (Fc fusion)
VHH-Fc chain: QVQLQESGGGLVQAGDSLRLSCAASGRTFDTYIVGWFRQAPGKEREFVSALSWSDDTTIRDDSLRGRFTISRDNAKNTVYLLMNSLKPEDTAVYYCAAKAKPPAATWSSYRNREWYDYWGQGTQVTVSSAPELLGGPDVFLFPPKPKDTLMISRTPEVTCVVVDVSHEDPEVKFNWYVDGVEVHNAKTKPREEQYNSTYRVVSVLTVLHQDWLNGKEYKCKVSNKALPAPEEKTISKAKGQPREPQVYTLPPSRDELTKNQVSLTCLVKGFYPSDIAVEWESNGQPENNYKTTPPVLDSDGSFFLYSKLTVDKSRWQQGNVFSCSVMHEALHNHYTQKSLSLSPGK
On to B4, for which the “% Specific Cell Lysis at 0.00125 ug/mL” value is 54%, the “% Specific Cell Lysis at 0.025 ug/mL” value is 52.1% and the “% Specific Cell Lysis at 10 ug/mL” value stood at 66%.

B5: 20378-FcDE (Fc fusion)
VHH-Fc chain: QVQLQESGGGLVQAGDSLRLSCTASGHTFSRYTTIGWFRQAPGKDREFVAAIRWSGDITDYADAVKGRFTISRDNVKNTVYLQMNSLNPEDTAVYYCARGYSEYGVLSRNRGLYAYWGQGTQVTVSSAPELLGGPDVFLFPPKPKDTLMISRTPEVTCVVVDVSHEDPEVKFNWYVDGVEVHNAKTKPREEQYNSTYRVVSVLTVLHQDWLNGKEYKCKVSNKALPAPEEKTISKAKGQPREPQVYTLPPSRDELTKNQVSLTCLVKGFYPSDIAVEWESNGQPENNYKTTPPVLDSDGSFFLYSKLTVDKSRWQQGNVFSCSVMHEALHNHYTQKSLSLSPGK
In the case of B5, the “% Specific Cell Lysis at 0.00125 ug/mL” value is 52.4%.

B6: 20400-FcDE (Fc fusion)
VHH-Fc chain: QVQLQESGGGLVQPGGSLRLSCAASGRTINAYIMGWFRQAPGKEREFVAAVSGSGGSTYYADSVKGRFTISRDNAKNTVNLQMDNLRSEDTDVYYCAATYESVYLQNPGQYDYWGQGTQVTVSSAPELLGGPDVFLFPPKPKDTLMISRTPEVTCVVVDVSHEDPEVKFNWYVDGVEVHNAKTKPREEQYNSTYRVVSVLTVLHQDWLNGKEYKCKVSNKALPAPEEKTISKAKGQPREPQVYTLPPSRDELTKNQVSLTCLVKGFYPSDIAVEWESNGQPENNYKTTPPVLDSDGSFFLYSKLTVDKSRWQQGNVFSCSVMHEALHNHYTQKSLSLSPGK
As for B6, the “% Specific Cell Lysis at 0.00125 ug/mL” value came out at 45.4% and the “% Specific Cell Lysis at 0.025 ug/mL” value was 47.6%.

B7: 20401-FcDE (Fc fusion)
VHH-Fc chain: QVQLQESGGGLVQAGESLTLSCIASGVIKDYAMGWFRQAPGKEREFVAAISWSGVSIYYADSVKGRFTISRDNAKNTVYLQMNSLEPEDTAVYYCAGTEGAYTVAGGSTFGYDMDYWGKGTQVTVSSAPELLGGPDVFLFPPKPKDTLMISRTPEVTCVVVDVSHEDPEVKFNWYVDGVEVHNAKTKPREEQYNSTYRVVSVLTVLHQDWLNGKEYKCKVSNKALPAPEEKTISKAKGQPREPQVYTLPPSRDELTKNQVSLTCLVKGFYPSDIAVEWESNGQPENNYKTTPPVLDSDGSFFLYSKLTVDKSRWQQGNVFSCSVMHEALHNHYTQKSLSLSPGK
Take B7: the “% Specific Cell Lysis at 0.00125 ug/mL” value is 48%, the “% Specific Cell Lysis at 0.025 ug/mL” value worked out at 47.5% and the “% Specific Cell Lysis at 10 ug/mL” value was 64.9%.

B8: 20415-FcDE (Fc fusion)
VHH-Fc chain: QVQLQESGGGLVQPGGSLRLSCTASGSIVSIYNMDWYRQAPGNEREWVASITSSGDPYYDGSAKGRFTISRDNAKMTVYLQMNSLKPEDTAVYYCKVPTEKGNYWGQGTQVTVSSAPELLGGPDVFLFPPKPKDTLMISRTPEVTCVVVDVSHEDPEVKFNWYVDGVEVHNAKTKPREEQYNSTYRVVSVLTVLHQDWLNGKEYKCKVSNKALPAPEEKTISKAKGQPREPQVYTLPPSRDELTKNQVSLTCLVKGFYPSDIAVEWESNGQPENNYKTTPPVLDSDGSFFLYSKLTVDKSRWQQGNVFSCSVMHEALHNHYTQKSLSLSPGK
Regarding B8, the “% Specific Cell Lysis at 0.00125 ug/mL” value was 52.8%, the “% Specific Cell Lysis at 0.025 ug/mL” value came to 61.1%, the “% Specific Cell Lysis at 0.5 ug/mL” value was 68.8% and the “% Specific Cell Lysis at 10 ug/mL” value was found to be 77.9%.

B9: 20422-FcDE (Fc fusion)
VHH-Fc chain: B8 VHH-Fc chain with K86E, Y94F
For B9, the “% Specific Cell Lysis at 0.5 ug/mL” value is 65.8% and the “% Specific Cell Lysis at 10 ug/mL” value came to 67.3%.

B10: 20421-FcDE (Fc fusion)
VHH-Fc chain: QVQLQESGGGLVQPGGSLRLSCAASGFTFSTYAMSWVRQAPGKGLEWVSAVNSGGLSTDYADSVEGRFTISRDDAKNMLFLQMNRLKPEDTARYYCAKYEDCSDYVCDRAGYWGQGTQVTVSSAPELLGGPDVFLFPPKPKDTLMISRTPEVTCVVVDVSHEDPEVKFNWYVDGVEVHNAKTKPREEQYNSTYRVVSVLTVLHQDWLNGKEYKCKVSNKALPAPEEKTISKAKGQPREPQVYTLPPSRDELTKNQVSLTCLVKGFYPSDIAVEWESNGQPENNYKTTPPVLDSDGSFFLYSKLTVDKSRWQQGNVFSCSVMHEALHNHYTQKSLSLSPGK
B10: the “% Specific Cell Lysis at 0.00125 ug/mL” value was 61.3%, the “% Specific Cell Lysis at 0.025 ug/mL” value amounted to 65.9%, the “% Specific Cell Lysis at 0.5 ug/mL” value is 67.7% and the “% Specific Cell Lysis at 10 ug/mL” value worked out at 69%.

B11: anti-IL-12Rβ2-VHH-FcDE clone 20407 (Fc fusion)
chain: QVQLQESGGGLVQPGGSLRLTCVASGFPFSTHAMSWVRQPPGKGREWISAINSGGDSTDYADSVMGRFTISRDNAKNTVYLQMNSLKSEDTAAYYCAKYEDCSDYDCSSRASWGQGTQVTVSSAPELLGGPDVFLFPPKPKDTLMISRTPEVTCVVVDVSHEDPEVKFNWYVDGVEVHNAKTKPREEQYNSTYRVVSVLTVLHQDWLNGKEYKCKVSNKALPAPEEKTISKAKGQPREPQVYTLPPSRDELTKNQVSLTCLVKGFYPSDIAVEWESNGQPENNYKTTPPVLDSDGSFFLYSKLTVDKSRWQQGNVFSCSVMHEALHNHYTQKSLSLSPGK
B11: the “% Specific Cell Lysis at 0.00125 ug/mL” value was 63.3%, the “% Specific Cell Lysis at 0.025 ug/mL” value is 66.5%, the “% Specific Cell Lysis at 0.5 ug/mL” value came out at 71.7% and the “% Specific Cell Lysis at 10 ug/mL” value came to 66.2%.
